The target of experiment [1] is T1, human plasma IgG3 (human, UniProt P01860-1 1-377).
T1 construct: Plasma-derived IgG isoform, bought
Put plainly: Oregon Green peptide, pH 7.5 + salt (500 mM NaCl). How it is done: (§1) Binding studies were performed using human plasma IgG isoforms: IgG1, IgG2, IgG3, and IgG4, obtained from Calbiochem.
(§2) Binding studies were carried out at either pH 4.0, 7.5, or 9.5, with or without salt in the following buffers: […]

The target of experiment [2] is T1, human plasma IgG3. The experiment can be described thus: Oregon Green peptide, pH 9.5 + salt (500 mM NaCl). Here is the method: as §1, §2
The target of experiment [3] is T2, human plasma IgG2 (human, UniProt P01859-1 1-326 = IgG part).
T2 construct: Plasma-derived IgG isoform, bought
T2 sequence (P01859 other isoform, or with tags, fused parts or gaps): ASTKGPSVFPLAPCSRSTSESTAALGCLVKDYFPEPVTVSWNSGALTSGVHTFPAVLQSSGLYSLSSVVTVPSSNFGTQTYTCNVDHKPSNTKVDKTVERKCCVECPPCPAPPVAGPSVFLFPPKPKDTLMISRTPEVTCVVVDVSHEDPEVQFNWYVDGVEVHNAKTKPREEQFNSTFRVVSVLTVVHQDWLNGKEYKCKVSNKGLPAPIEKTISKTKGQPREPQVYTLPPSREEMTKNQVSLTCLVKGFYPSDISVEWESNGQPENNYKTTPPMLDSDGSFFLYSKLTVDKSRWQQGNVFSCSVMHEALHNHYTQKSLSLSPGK
The experiment can be described thus: Oregon Green peptide, pH 9.5 - salt. Here is the method: as §1, §2

Experiment [4] concerns the target T1, human plasma IgG3. Put plainly: Oregon Green peptide, pH 9.5 - salt. Here is the method:
as §1, §2

For experiment [5], the target named is T3, human plasma IgG1 (human, UniProt P01857-1 1-330 = IgG part).
T3 construct: Plasma-derived IgG isoform, bought
T3 sequence (P01857 other isoform, or with tags, fused parts or gaps): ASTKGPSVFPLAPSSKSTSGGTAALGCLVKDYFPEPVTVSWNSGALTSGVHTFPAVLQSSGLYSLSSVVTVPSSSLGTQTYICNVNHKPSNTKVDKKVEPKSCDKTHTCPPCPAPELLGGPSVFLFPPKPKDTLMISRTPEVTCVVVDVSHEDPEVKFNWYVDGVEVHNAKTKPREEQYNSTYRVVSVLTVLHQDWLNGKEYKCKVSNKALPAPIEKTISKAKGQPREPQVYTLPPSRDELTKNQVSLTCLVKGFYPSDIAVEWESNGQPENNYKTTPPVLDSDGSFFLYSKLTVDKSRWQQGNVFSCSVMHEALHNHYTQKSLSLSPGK
Put plainly: Oregon Green peptide, pH 7.5 - salt. Here is the method: as §1, §2

Experiment [6] has as its target T4, human plasma IgG4 (human, UniProt P01861-1 1-327 = IgG part).
T4 construct: Plasma-derived IgG isoform, bought
The experiment can be described thus: Oregon Green peptide, pH 7.5 - salt. Here is the method:
as §1, §2

For experiment [7], the target named is T1, human plasma IgG3. Put plainly: Oregon Green peptide, TBS pH 7.5. Here is the method:
as §1, §2

The target of experiment [8] is T3, human plasma IgG1. The experiment can be described thus: Oregon Green peptide, pH 4.0 - salt. How it is done: as §1, §2
Experiment [9] concerns the target T1, human plasma IgG3. The experiment can be described thus: Oregon Green peptide, pH 4.0 - salt. Here is the method:
as §1, §2

The target in experiment [10] is T4, human plasma IgG4. The experiment can be described thus: Oregon Green peptide, pH 4.0 - salt. Here is the method: as §1, §2
Experiment [11] deals with T1, human plasma IgG3. Put plainly: Oregon Green peptide, pH 4.0 + salt (500 mM NaCl). How it is done:
as §1, §2

The target of experiment [12] is T2, human plasma IgG2. Put plainly: Oregon Green peptide, pH 7.5 - salt. How it is done: as §1, §2
Experiment [13] has as its target T2, human plasma IgG2. The experiment can be described thus: Oregon Green peptide, pH 4.0 - salt. Here is the method:
as §1, §2

Experiment [14] deals with T2, human plasma IgG2. Put plainly: Oregon Green peptide, pH 4.0 + salt (500 mM NaCl). How it is done: as §1, §2
The target of experiment [15] is T3, human plasma IgG1. The experiment can be described thus: Oregon Green peptide, pH 4.0 + salt (500 mM NaCl). How it is done: as §1, §2
In experiment [16] the target is T5, goat serum albumin (Goat).
T5 construct: also called GSA
T5 sequence (P85295 whole entry, looked up): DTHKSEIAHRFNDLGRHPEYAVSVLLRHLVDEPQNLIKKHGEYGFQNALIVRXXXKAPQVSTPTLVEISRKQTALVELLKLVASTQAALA
The experiment can be described thus: labeled peptide, KD; PBS, pH 7.4, 0.14 M NaCl.

Experiment [17] deals with T5, goat serum albumin. The experiment can be described thus: labeled peptide, KD; 3 mM phosphate, pH 6.2, 0 M NaCl.
In a further experiment the target is rabbit serum albumin (Rabbit, UniProt P49065 25-608). The description is as above.
Sequence of rabbit serum albumin (P49065 25-608 limits assumed): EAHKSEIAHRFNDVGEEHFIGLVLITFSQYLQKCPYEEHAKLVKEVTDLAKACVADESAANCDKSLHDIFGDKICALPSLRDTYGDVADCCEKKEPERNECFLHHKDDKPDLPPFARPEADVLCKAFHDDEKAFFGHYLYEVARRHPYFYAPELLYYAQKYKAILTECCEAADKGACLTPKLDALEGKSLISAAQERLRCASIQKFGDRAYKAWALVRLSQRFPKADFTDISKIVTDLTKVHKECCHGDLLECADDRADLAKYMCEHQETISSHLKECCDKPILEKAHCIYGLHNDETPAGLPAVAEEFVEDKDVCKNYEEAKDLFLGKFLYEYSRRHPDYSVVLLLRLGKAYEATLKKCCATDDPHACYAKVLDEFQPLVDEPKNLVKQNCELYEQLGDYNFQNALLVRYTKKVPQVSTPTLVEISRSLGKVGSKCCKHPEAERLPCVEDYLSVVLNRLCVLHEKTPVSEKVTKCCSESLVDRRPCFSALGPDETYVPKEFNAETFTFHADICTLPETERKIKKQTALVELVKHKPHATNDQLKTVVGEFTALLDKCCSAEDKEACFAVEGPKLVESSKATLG
For experiment [18], the target named is T6, pig serum albumin (Pig, UniProt P08835 25-607). The description is as above.
T6 sequence (P08835 25-607 limits assumed): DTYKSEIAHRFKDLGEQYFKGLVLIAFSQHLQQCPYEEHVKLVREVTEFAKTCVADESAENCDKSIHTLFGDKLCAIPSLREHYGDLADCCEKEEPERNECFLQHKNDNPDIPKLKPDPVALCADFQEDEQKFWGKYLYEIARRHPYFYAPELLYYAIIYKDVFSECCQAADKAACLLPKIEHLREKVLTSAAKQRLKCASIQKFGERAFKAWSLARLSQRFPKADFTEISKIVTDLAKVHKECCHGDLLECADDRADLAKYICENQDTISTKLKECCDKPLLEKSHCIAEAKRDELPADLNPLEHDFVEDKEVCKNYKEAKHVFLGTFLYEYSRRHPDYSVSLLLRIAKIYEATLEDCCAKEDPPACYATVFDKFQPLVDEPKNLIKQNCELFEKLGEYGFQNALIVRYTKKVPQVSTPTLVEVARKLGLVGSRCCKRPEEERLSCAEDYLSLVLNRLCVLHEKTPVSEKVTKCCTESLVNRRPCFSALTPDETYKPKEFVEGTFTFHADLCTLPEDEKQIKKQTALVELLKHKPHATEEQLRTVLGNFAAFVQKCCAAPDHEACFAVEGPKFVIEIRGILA
For experiment [19], the target named is T2, human plasma IgG2. Put plainly: Oregon Green peptide, pH 7.5 + salt (500 mM NaCl); pH 7.5 + salt. Here is the method: as §1, §2
The target in experiment [20] is T7, rat serum albumin (Rat, UniProt P02770 25-608). Put plainly: labeled peptide, KD; PBS, pH 7.4, 0.14 M NaCl.
T7 sequence (P02770 25-608 limits assumed): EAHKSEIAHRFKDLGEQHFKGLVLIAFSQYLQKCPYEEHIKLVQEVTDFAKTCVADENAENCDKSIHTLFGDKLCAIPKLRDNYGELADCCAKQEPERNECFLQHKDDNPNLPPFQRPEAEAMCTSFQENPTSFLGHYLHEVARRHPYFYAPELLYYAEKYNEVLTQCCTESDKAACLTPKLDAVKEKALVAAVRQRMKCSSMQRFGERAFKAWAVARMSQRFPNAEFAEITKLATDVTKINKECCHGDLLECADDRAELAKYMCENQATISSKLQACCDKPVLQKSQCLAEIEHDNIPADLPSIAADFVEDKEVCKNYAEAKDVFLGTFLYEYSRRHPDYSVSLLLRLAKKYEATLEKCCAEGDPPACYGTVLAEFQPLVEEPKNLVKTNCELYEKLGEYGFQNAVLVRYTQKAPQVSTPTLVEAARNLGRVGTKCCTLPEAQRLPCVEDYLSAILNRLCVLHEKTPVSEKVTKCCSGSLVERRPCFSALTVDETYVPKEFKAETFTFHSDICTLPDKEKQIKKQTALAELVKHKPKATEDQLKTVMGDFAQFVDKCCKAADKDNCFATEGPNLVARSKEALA
In experiment [21] the target is T8, human serum albumin (human, UniProt P02768 25-609).
T8 construct: also called HSA
T8 sequence (P02768 25-609): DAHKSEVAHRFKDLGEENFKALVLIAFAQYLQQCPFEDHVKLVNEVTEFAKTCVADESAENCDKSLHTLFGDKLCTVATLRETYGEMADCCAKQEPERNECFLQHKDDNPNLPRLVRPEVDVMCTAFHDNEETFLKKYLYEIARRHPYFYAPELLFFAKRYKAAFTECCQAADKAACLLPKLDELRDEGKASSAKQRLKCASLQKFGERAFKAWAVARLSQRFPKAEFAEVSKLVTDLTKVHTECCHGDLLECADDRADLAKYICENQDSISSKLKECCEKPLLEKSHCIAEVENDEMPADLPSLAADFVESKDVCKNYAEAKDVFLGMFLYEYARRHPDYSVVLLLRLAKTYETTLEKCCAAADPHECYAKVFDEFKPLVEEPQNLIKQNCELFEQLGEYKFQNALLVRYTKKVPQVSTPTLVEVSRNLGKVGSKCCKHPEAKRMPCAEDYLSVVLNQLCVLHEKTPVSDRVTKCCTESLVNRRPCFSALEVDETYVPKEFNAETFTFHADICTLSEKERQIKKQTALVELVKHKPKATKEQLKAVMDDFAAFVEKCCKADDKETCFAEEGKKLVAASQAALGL
The experiment can be described thus: labeled peptide, KD; PBS, pH 7.4, 0.14 M NaCl.

Experiment [22] addresses T9, Rhesus serum albumin (Rhesus, UniProt Q28522 17-600). The experiment can be described thus: labeled peptide, KD; PBS, pH 7.4, 0.14 M NaCl.
In experiment [23] the target is T6, pig serum albumin. The experiment can be described thus: labeled peptide, KD; 3 mM phosphate, pH 6.2, 0 M NaCl; labeled peptide in solution; 3 mM phosphate, pH 6.2, 0 M NaCl.
For another experiment, the target named is T10, bovine serum albumin (Bovine, UniProt P02769 25-607).
T10 construct: also called BSA
T10 sequence (P02769 25-607 limits assumed): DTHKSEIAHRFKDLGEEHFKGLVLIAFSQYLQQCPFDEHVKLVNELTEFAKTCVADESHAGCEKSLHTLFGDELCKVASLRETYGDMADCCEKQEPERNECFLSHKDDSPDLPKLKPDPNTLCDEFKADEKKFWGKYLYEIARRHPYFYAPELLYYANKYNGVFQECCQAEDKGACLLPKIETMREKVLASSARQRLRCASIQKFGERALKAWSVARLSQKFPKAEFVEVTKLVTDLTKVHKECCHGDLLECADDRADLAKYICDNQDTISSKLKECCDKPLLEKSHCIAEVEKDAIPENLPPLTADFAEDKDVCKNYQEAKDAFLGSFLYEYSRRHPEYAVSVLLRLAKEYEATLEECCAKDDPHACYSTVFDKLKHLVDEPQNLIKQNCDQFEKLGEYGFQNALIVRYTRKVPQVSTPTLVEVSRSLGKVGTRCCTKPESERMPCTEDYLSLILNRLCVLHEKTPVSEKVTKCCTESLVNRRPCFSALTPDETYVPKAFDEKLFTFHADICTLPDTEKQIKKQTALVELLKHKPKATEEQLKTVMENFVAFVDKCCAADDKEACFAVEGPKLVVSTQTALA
The description is as above.

The target of experiment [24] is T7, rat serum albumin. Put plainly: labeled peptide, KD; 3 mM phosphate, pH 6.2, 0 M NaCl.
Experiment [25] deals with T8, human serum albumin. Described as above.
In experiment [26] the target is T9, Rhesus serum albumin. Described as above.

Positions of bridges follow the written chain, without caps; N, C: chain ends. No end group written: not given here.

T4 sequence (P01861 other isoform, or with tags, fused parts or gaps): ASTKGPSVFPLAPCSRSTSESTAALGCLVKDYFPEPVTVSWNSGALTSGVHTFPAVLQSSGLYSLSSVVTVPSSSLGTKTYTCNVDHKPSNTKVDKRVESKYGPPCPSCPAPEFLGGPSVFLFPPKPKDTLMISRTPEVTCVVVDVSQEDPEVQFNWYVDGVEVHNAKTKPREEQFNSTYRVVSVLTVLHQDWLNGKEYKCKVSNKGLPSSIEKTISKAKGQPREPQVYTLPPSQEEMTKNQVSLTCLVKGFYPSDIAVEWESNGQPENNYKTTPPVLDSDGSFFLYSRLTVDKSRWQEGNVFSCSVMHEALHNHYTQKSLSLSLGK
T1 sequence (P01860 other isoform, or with tags, fused parts or gaps): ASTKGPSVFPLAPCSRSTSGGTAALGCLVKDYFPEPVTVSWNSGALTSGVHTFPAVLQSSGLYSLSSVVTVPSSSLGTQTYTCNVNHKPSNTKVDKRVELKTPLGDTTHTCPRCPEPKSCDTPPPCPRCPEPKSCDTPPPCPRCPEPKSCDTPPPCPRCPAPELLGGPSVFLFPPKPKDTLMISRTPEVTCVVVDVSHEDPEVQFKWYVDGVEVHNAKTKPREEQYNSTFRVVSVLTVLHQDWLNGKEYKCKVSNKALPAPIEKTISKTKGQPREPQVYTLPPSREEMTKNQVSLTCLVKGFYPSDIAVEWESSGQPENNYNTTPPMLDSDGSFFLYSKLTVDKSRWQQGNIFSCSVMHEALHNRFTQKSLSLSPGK
T9 sequence (Q28522 17-600 limits assumed): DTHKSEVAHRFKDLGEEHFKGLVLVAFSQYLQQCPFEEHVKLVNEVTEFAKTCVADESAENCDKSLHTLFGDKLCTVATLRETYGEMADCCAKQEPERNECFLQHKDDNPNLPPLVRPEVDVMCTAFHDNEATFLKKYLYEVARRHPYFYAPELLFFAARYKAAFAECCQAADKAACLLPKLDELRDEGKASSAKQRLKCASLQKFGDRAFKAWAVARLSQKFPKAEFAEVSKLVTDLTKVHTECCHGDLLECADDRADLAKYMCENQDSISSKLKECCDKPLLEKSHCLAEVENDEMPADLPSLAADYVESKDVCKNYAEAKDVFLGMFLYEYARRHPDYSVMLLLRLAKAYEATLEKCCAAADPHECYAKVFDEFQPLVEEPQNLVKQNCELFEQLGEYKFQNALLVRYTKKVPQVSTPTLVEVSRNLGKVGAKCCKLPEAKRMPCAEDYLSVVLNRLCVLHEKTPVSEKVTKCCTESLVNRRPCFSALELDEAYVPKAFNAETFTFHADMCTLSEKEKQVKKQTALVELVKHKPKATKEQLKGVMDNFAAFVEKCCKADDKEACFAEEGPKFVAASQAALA

B1: DX398 (peptide)
peptide: AGAATCSTSYWYYQWFCTDSPGPEGGGK
modifications: N-terminal acetyl (Ac-); C-terminal amide (-NH2); Oregon Green labeled
notes: Synthesised by BACHEM, Oregon Green labeled, HPLC purified
Broadly, the Kd is the concentration at which binding is half-saturated. On to B1, for which the Kd is 300 nM with human plasma IgG3 [1]; 300 nM with human plasma IgG3 [2]; above 10000 nM with human plasma IgG2 [3]; above 10000 nM with human plasma IgG3 [4]; 4600 nM with human plasma IgG1 [5]; 3500 nM with human plasma IgG4 [6]. Moreover, the dissociation constant Kd is above 10000 nM in the experiment with human plasma IgG3 [7]; 2400 nM with human plasma IgG1 [8]; 20 nM in the experiment with human plasma IgG3 [9]; 1600 nM in the experiment with human plasma IgG4 [10]; 40 nM in the experiment with human plasma IgG3 [11].

B2: DX404 (peptide)
peptide: AGTYWCTFWELPCDPAPGPEGGGK
modifications: N-terminal acetyl (Ac-); C-terminal amide (-NH2); Oregon Green labeled
notes: as for B1
On to B2, for which the dissociation constant (Kd) was 8600 nM in the experiment with human plasma IgG2 [12]; 8800 nM with human plasma IgG1 [5]; 1000 nM with human plasma IgG2 [13]; 1500 nM with human plasma IgG1 [8]; 10 nM with human plasma IgG3 [9]; 2000 nM with human plasma IgG2 [14]. Also, the dissociation constant (Kd) in the experiment with human plasma IgG1 [15] worked out at 2000 nM; with human plasma IgG3 [11], 200 nM.

B3: DX413 (peptide)
peptide: AGYWYCWFPDRPECPLYPGPEGGGK
modifications: N-terminal acetyl (Ac-); C-terminal amide (-NH2); Oregon Green labeled
notes: as for B1
Regarding B3, the figures for the Kd in the experiment with human plasma IgG3 [9] and with human plasma IgG3 [11] were 840 nM and 1100 nM, respectively.

B4: DX-236 (peptide)
peptide: AEGTGDFWFCDRIAWYPQHLCEFLDPEGGGK
modifications: disulfide 10-21 (inferred); not fully specified; also: labeled, label not named, coupled via C-terminal lysine to NHS-Sepharose
notes: Cyclic (disulfide) phage-display peptide
Regarding B4, the Kd is 23000 nM in the experiment with goat serum albumin [16], 1600 nM with goat serum albumin [17], 500 nM in the experiment with rabbit serum albumin and 500 nM with pig serum albumin [18].

B5: DX395 (peptide)
peptide: Ac-AGKYWCNLWGVCPANPGPEGGGK-NH2
modifications: cysteine pairing not given here; also: Oregon Green labeled, place not given here
notes: as for B1
As to B5, the Kd with human plasma IgG4 [6] was above 10000 nM; with human plasma IgG3 [9] it was 1000 nM.

B6: DX389 (peptide)
peptide: Ac-AGPHNCDDHYWYCKWFPGPEGGGK-NH2
modifications: cysteine pairing not given here; also: Oregon Green labeled, place not given here
notes: as for B1
For the molecule B6, the Kd is above 10000 nM in the experiment with human plasma IgG3 [1], above 10000 nM in the experiment with human plasma IgG2 [19], 2500 nM with human plasma IgG3 [9] and 1800 nM with human plasma IgG3 [11].

B7: DX392 (peptide)
peptide: Ac-AGSYWCKIWDVCPQSPGPEGGGK-NH2
modifications: cysteine pairing not given here; also: Oregon Green labeled, place not given here
notes: as for B1
In the case of B7, the equilibrium dissociation constant (Kd) was above 10000 nM with human plasma IgG3 [1], above 10000 nM with human plasma IgG3 [2], 320 nM with human plasma IgG3 [9] and 600 nM with human plasma IgG3 [11].

B8: DX-321 (peptide)
peptide: AEGTGDRNMCKFSWIRSPAFCARADPE
modifications: not fully specified (bridges); cysteine pairing not given here; also: label not named, exact tested form not given here, immobilised via C-terminal lysine to Sepharose
Consider B8, for which the Kd turned out to be 83000 nM in the experiment with goat serum albumin [16]; 117000 nM in the experiment with rat serum albumin [20]; 84000 nM with human serum albumin [21]; 82000 nM with Rhesus serum albumin [22]; 21000 nM in the experiment with pig serum albumin [23]; 21000 nM with bovine serum albumin. Further, the Kd in the experiment with goat serum albumin [17] is 95000 nM; in the experiment with rat serum albumin [24], 23000 nM; in the experiment with human serum albumin [25], 900 nM; in the experiment with Rhesus serum albumin [26], 38000 nM.

Source of the values: patent US20040009534A1 (DYAX, published 2004).
